From patent publication US20210261626A1 (DONALDSON, published 2021)

Target: human serum albumin (human, UniProt P02768 25-609)
Assay: phase separation pull-down with 0.6 M NaCl and centrifugation, supernatant and pellet on SDS-PAGE

human serum albumin, sequence (P02768 25-609 limits assumed): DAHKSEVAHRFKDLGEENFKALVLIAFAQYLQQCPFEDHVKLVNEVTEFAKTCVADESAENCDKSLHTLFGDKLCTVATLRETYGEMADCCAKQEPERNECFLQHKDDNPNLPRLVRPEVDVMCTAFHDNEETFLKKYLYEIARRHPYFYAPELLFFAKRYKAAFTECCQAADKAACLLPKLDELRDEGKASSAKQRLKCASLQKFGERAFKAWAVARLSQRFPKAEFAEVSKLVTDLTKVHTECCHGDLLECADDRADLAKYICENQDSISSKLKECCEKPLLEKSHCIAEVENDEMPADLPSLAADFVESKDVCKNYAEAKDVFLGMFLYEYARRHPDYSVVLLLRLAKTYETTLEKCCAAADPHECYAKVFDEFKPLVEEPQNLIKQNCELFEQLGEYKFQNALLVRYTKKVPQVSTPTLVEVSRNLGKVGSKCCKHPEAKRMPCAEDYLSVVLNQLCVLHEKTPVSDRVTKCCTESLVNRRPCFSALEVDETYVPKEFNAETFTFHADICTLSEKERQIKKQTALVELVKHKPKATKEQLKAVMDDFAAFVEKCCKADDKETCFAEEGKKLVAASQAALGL

B1: ELP1,80-CapG (designed binder)
chain: MSKGPGVGVPGLGVPGVGVPGLGVPGVGVPGVGVPGLGVPGVGVPGLGVPGVGVPVGVPGLGVPGVGVPGLGVPGVGVPGVGVPGLGVPGVGVPGLGVPGVGVPVGVPGLGVPGVGVPGLGVPGVGVPGVGVPGLGVPGVGVPGLGVPGVGVPVGVPGLGVPGVGVPGLGVPGVGVPGVGVPGLGVPGVGVPGLGVPGVGVPVGVPGLGVPGVGVPGLGVPGVGVPGVGVPGLGVPGVGVPGLGVPGVGVPVGVPGLGVPGVGVPGLGVPGVGVPGVGVPGLGVPGVGVPGLGVPGVGVPVGVPGLGVPGVGVPGLGVPGVGVPGVGVPGLGVPGVGVPGLGVPGVGVPVGVPGLGVPGVGVPGLGVPGVGVPGVGVPGLGVPGVGVPGLGVPGVGVPGTYKLILNGKTLKGETTTEAVDAATAEKVFKQYANDNGVDGEWTYDDATKTFTVTEG
notes: Expressed in E. coli; also called fusion comprised of an optimal ELP and a Protein G domain
- binding result: no binding
